In general, Kd refers to the concentration at which binding is half-saturated. A word on the koff: it is the first-order rate constant of dissociation. For orientation: kon means a measure of how fast the partners come together.

Experiment [1] has as its target T1, recombinant human IL-1α (human, UniProt P01583 113-271).
T1 construct: Purified recombinant protein bought from R&D Systems; also called hIL-1α; rhIL-1α
T1 sequence: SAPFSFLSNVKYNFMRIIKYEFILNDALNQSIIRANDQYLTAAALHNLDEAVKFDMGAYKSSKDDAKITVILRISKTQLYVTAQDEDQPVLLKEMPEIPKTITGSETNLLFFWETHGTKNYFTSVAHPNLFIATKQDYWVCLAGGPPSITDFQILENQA
Nature of the experiment: SPR (Biacore), mAb captured via goat anti-mouse IgG. On the technique in general: SPR reads the build-up and loss of mass on a sensor chip optically.

The target in experiment [2] is T1, recombinant human IL-1α. Briefly: cell-based or functional assay.
Experiment [3] concerns the target T1, recombinant human IL-1α. Nature of the experiment: cell-based or functional assay. The source holds these as a separate data set.
Experiment [4] addresses T1, recombinant human IL-1α. Nature of the experiment: SPR (Biacore).
Experiment [5] has as its target T2, murine IL-1α (mouse, UniProt P01582 115-270).
T2 sequence (looked up): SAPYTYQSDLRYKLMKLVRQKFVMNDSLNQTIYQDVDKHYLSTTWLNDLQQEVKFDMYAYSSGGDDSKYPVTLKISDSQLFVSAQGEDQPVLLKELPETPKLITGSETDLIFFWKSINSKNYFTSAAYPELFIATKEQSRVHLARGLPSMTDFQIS
Nature of the experiment: cell-based or functional assay.

For experiment [6], the target named is T2, murine IL-1α. Briefly: affinity, method not named for this table (Biacore elsewhere).
In experiment [7] the target is T3, murine IL-1β (mouse, UniProt P10749 118-269).
T3 sequence (looked up): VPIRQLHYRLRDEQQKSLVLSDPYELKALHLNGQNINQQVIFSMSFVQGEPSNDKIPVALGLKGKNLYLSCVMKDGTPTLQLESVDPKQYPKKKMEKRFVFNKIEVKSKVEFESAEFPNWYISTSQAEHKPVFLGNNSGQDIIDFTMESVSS
Briefly: cell-based or functional assay.

The target of experiment [8] is T3, murine IL-1β. Briefly: affinity, method not named for this table (Biacore elsewhere).
In experiment [9] the target is T4, recombinant human IL-1β (human, UniProt P01584 117-269). Nature of the experiment: cell-based or functional assay.
The target in experiment [10] is T4, recombinant human IL-1β. Briefly: SPR (Biacore 3000), binder captured via goat anti-human IgG Fc. How it is done:
(§1) Approximately, 5000 RU of goat anti-human IgG Fcγ fragment specific polyclonal antibody (Pierce Biotechnology Inc, Rockford, Ill.) diluted in 10 mM sodium acetate (pH 4.5) was directly immobilized across a CM5 research grade biosensor chip using a standard amine coupling kit according to manufacturer's instructions and procedures at […]. Unreacted moieties on the biosensor surface were blocked with ethanolamine. Modified carboxymethyl dextran surface in flowcell 2 and 4 was used as a reaction surface. Unmodified carboxymethyl dextran without goat anti-human IgG in flow cell 1 and 3 was used as the reference surface. For kinetic analysis, rate equations derived from the 1:1 Langmuir binding model were fitted simultaneously to association and dissociation phases of all ten injections (using global fit analysis) using the Bioevaluation 4.0.1 software. Purified DVD-Ig samples were diluted in HEPES-buffered saline for capture across goat anti-human IgG Fc specific reaction surfaces and injected over reaction matrices at a flow rate of […]. The association and dissociation rate constants, kon (M-1s-1) and koff (s-1) were determined under a continuous flow rate of 25 ml/minute. […] The equilibrium dissociation constant (M) of the reaction between DVD-Ig molecule and rhIL1α/β was then calculated from the kinetic rate constants by the following formula: KD=koff/kon. Aliquots of rhIL1α/β samples were also simultaneously injected over a blank reference and reaction CM surface to record and subtract any nonspecific binding background to eliminate the majority of the refractive index change and injection noise. Surfaces were regenerated with two subsequent […] injections of 10 mM Glycine (pH 1.5) at a flow rate of […]. The anti-Fc antibody immobilized surfaces were completely regenerated and retained their full capture capacity over twelve cycles. The apparent stoichiometry of the captured DVD-Ig-rhIL1α/β complex was calculated under saturating binding conditions (steady-state equilibrium) using the following formula: […]

For experiment [11], the target named is T4, recombinant human IL-1β. Briefly: SPR (Biacore 3000), saturating binding. How it is done: (§2) The association and dissociation rate constants, kon (M-1s-1) and koff (s-1) were determined under a continuous flow rate of 25 ml/minute. […] The equilibrium dissociation constant (M) of the reaction between DVD-Ig molecule and rhIL1α/β was then calculated from the kinetic rate constants by the following formula: KD=koff/kon. Aliquots of rhIL1α/β samples were also simultaneously injected over a blank reference and reaction CM surface to record and subtract any nonspecific binding background to eliminate the majority of the refractive index change and injection noise. Surfaces were regenerated with two subsequent […] injections of 10 mM Glycine (pH 1.5) at a flow rate of […]. The anti-Fc antibody immobilized surfaces were completely regenerated and retained their full capture capacity over twelve cycles. The apparent stoichiometry of the captured DVD-Ig-rhIL1α/β complex was calculated under saturating binding conditions (steady-state equilibrium) using the following formula: […]
(§3) The affinity of the two DVD-Ig binding proteins to hIL-1 as compared to the affinity of chimeric antibodies to hIL-1 was similar as indicated by the evaluation of the stoichiometry to IL-1. Both chimeric antibodies, being bivalent monospecific, bound to IL-1α and IL-1β on Biacore with a stoichiometry of 1.6 and 1.7, respectively. This is common for an IgG due to inter-molecular interference when antibodies are immobilized densely on the Biacore sense chip resulting in stoichiometry being in the range from 1.5 to 2.0.

The target in experiment [12] is T1, recombinant human IL-1α. Briefly: cell-based or functional assay. This is another data set of the same source.
The target in experiment [13] is T1, recombinant human IL-1α. Nature of the experiment: SPR (Biacore 3000), binder captured via goat anti-human IgG Fc. Here is the method: as §1
Experiment [14] deals with T1, recombinant human IL-1α. Nature of the experiment: SPR (Biacore 3000), saturating binding. Here is the method:
as §2, §3

B1: murine monoclonal antibody 18F4.2C8 (antibody, V domains shown)
VH: EVQLQQSGAELVKPGASVKLSCTASGLNIKDTYMHWLKQRPEQGLEWIGRIDPANGNAKYDPRFLGKATITADTSSNTAYLQLSSLTSEDTAVYYCARGDGNFHFDYWGQGTTLTVSS
VL: DIVMTQSQRFMSTSVGDRVSVTCKASQNVGTNIAWYQQKPGQSPRALIYSASYRYSGVPDRFTGSGSGTDFTLTISNVQSVDLAEYFCQQYTRYPLTFGGGTKLEIKR
notes: Murine hybridoma mAb, anti-hIL-1α
Turning to B1, the figures for the Kd in [1] and in experiment [4] were 0.578 nM and 0.595 nM, respectively. Besides, in [2], the “IC50 (M), MRC-5 bioassay” value turned out to be 3.3e-10 M. Further, in experiment [3], the “IC50 (M), MRC-5 bioassay (inhibition of IL-8 production)” value was found to be 8.9e-11 M.

B2: mouse anti-mouse IL-1α monoclonal antibody 9H10 (antibody, V domains shown)
VH: QVILKESGPGILQPSQTLSLTCSFSGFSLSTYGTAVNWIRQPSGKGLEWLAQIGSDDRKLYNPFLKSRITLSEDTSNSQVFLKITSVDTEDSATYYCANGVMEYWGLGTSVTVSS
VL: SIVMTQTPKFLLVSAGDRVTITCKASQSVNHDVAWYQQMPGQSPKLLIYFASNRYTGVPDRFTGSGYGTDFTFTISTVQAEDLAVYFCQQDYSSPYTFGGGTKLEIKR
notes: Mouse mAb from IL-1αβ double KO mice; also called anti-IL-1α (9H10)
For the molecule B2, the “IC50 (M), in vitro potency” value in experiment [5] is 2e-10 M. For the same molecule, in experiment [6], the Kd is 0.173 nM.

B3: mouse anti-mouse IL-1β monoclonal antibody 10G11 (antibody, V domains shown)
VH: EVQLQQSGPELVKPGTSVKMSCKTSGYTFTSYVMHWVKQKPGQGLEWIGYIIPYNDNTKYNEKFKGKATLTSDKSSSTAYMELSSLTSEDSAVYYCARRNEYYGSSFFDYWGQGTTLTVSS
VL: DIQMTQSPASLSASVGETVTITCRGSGILHNYLVWYQQKQGKSPQLLVYSAKILADGVPSRFSGSGSGTQYSLKINSLQPEDFGSYYCQHFWSTPFTFGSGTKLEIKR
notes: Mouse mAb from IL-1αβ double KO mice; also called anti-IL-1β (10G11)
As to B3, in experiment [7], the “IC50 (M), in vitro potency” value is 3.7e-10 M. In experiment [8], the Kd amounted to 0.23 nM.

B4: mIL-1α/β DVD-Ig binding protein (bispecific antibody, mouse IgG2a, kappa)
heavy: EVQLQQSGPELVKPGTSVKMSCKTSGYTFTSYVMHWVKQKPGQGLEWIGYIIPYNDNTKYNEKFKGKATLTSDKSSSTAYMELSSLTSEDSAVYYCARRNEYYGSSFFDYWGQGTTLTVSSAKTTAPSVYPLAPQVILKESGPGILQPSQTLSLTCSFSGFSLSTYGTAVNWIRQPSGKGLEWLAQIGSDDRKLYNPFLKSRITLSEDTSNSQVFLKITSVDTEDSATYYCANGVMEYWGLGTSVTVSSAKTTAPSVYPLAPVCGDTTGSSVTLGCLVKGYFPEPVTLTWNSGSLSSGVHTFPAVLQSDLYTLSSSVTVTSSTWPSQSITCNVAHPASSTKVDKKIEPRGPTIKPCPPCKCPAPNLLGGPSVFIFPPKIKDVLMISLSPIVTCVVVDVSEDDPDVQISWFVNNVEVHTAQTQTHREDYNSTLRVVSALPIQHQDWMSGKEFKCKVNNKDLPAPIERTISKPKGSVRAPQVYVLPPPEEEMTKKQVTLTCMVTDFMPEDIYVEWTNNGKTELNYKNTEPVLDSDGSYFMYSKLRVEKKNWVERNSYSCSVVHEGLHNHHTTKSFSRTPGK
light: DIQMTQSPASLSASVGETVTITCRGSGILHNYLVWYQQKQGKSPQLLVYSAKILADGVPSRFSGSGSGTQYSLKINSLQPEDFGSYYCQHFWSTPFTFGSGTKLEIKRADAAPTVSIFPPSIVMTQTPKFLLVSAGDRVTITCKASQSVNHDVAWYQQMPGQSPKLLIYFASNRYTGVPDRFTGSGYGTDFTFTISTVQAEDLAVYFCQQDYSSPYTFGGGTKLEIKRADAAPTVSIFPPSSEQLTSGGASVVCFLNNFYPKDINVKWKIDGSERQNGVLNSWTDQDSKDSTYSMSSTLTLTKDEYERHNSYTCEATHKTSTSPIVKSFNRNEC
notes: V(anti-mIL-1β 10G11)-linker-V(anti-mIL-1α 9H10)-murine constant region (Cγ2a and Cκ); also called mDVD4-Ig; murine IL-1α/β DVD4-Ig
For the molecule B4, the “IC50 (M), in vitro potency” value in [5] stood at 2e-09 M; in [7], 8e-10 M. The equilibrium dissociation constant (Kd) in [6] is 0.766 nM; in experiment [8], 0.694 nM.

B5: murine monoclonal antibody 6H3.1A4.3E11 (antibody, V domains shown)
VH: QVQLQQPGAELVRPGASVKLSCKASGYTFTTYWMNWVKQRPEQGLEWIGRIDPYDSETLYSQKFKDTAILTVDKSSSTAYMQLSSLTSEDSAVYYCARYGFDYWGQGTTLTVSS
VL: QIVLTQSPALMSASPGEKVTMTCSASSSVNYMYWYQQKPRSSPKPWIYLTSNLASGVPARFSGSGSGTSYSLTISSMEAEDAATYYCQQWNSNPYTFGGGTKLEMKR
notes: as for B1
Turning to B5, the Kd in experiment [1] and in experiment [4] was 0.354 nM each time. The “IC50 (M), MRC-5 bioassay” value in experiment [2] was 2.4e-10 M. Further, the “IC50 (M), MRC-5 bioassay (inhibition of IL-8 production)” value in [3] amounted to 2.4e-10 M.

B6: chimeric 13F5.G5 antibody (antibody, V domains shown)
VH: QVQLQQSGAELVRPGSSVKISCKASGYAFSSYWMNWVKQRPGQGLEWIGQIYPGDGDTNYNGKFKGKATLTADKSSSTSYMQLSGLTSEDSAMYFCVRFPTGNDYYAMDYWGQGTSVTVSS
VL: NIVLTQSPASLAVSLGQRATISCRASESVDSYGNSYMHWYQQKPGQPPKLLIYLASNLESGVPARFSGSGSRTDFTLTIDPVEADDAATYYCQQNNEDPFTFGSGTKLEIKR
notes: Murine variable domains on human Cγ1 and human Cκ constant regions (13F5.G5-VH-Cγ1, 13F5.G5-VL-Cκ); also called 13F5.G5-Ch; 13F5.G5 chimeric Ab
For B6, the “Potency (IC50) M, MRC-5 bioassay” value in experiment [9] was determined as 0.53 nM. In experiment [10], the dissociation constant Kd was found to be 0.462 nM, the dissociation rate constant (koff) was found to be 0.000654 s⁻¹ and the kon worked out at 1.41e+06 M⁻¹ s⁻¹. Also, the Stoichiometry in experiment [11] was 1.7.

B7: chimeric 3D12.E3 antibody (antibody, V domains shown)
VH: QIQLVQSGPELKKPGETVKISCKASGYTFRNYGMNWVKQAPGKDLKRMAWINTYTGESTYADDFKGRFAFSLETSASTAYLQINNLKNEDTATYFCARGIYYYGSSYAMDYWGQGTSVTVSS
VL: NIQMTQTTSSLSASLGDRVTISCRASQDISNCLNWYQQKPDGTVKLLIYYTSRLHSGVPSRFSGSGSGTDYSLTISNLEQEDIATYFCQQGKTLPYAFGGGTKLEINR
notes: Murine variable domains on human Cγ1 and human Cκ constant regions (3D12.E3-VH-hCγ1, 3D12.E3-VL-hCκ); also called 3D12.E3-Ch; 3D12.E3 chimeric Ab
With B7, the “Potency (IC50) M, MRC-5 bioassay” value in experiment [12] was 0.7 nM. In [13], the Kd amounted to 1.34 nM, the off-rate (koff) is 0.000552 s⁻¹ and the kon came out at 412000 M⁻¹ s⁻¹. Besides, the Stoichiometry in experiment [14] worked out at 1.6.

Source of the values: patent US20120201781A1 (AbbVie / Abbott, published 2012).
